B1: 2F5 IgA2 (antibody, V domains shown)
VH: RITLKESGPPLVKPTQTLTLTCSFSGFSLSDFGVGVGWIRQPPGKALEWLAIIYSDDDKRYSPSLNTRLTITKDTSKNQVVLVMTRVSPVDTATYFCAHRRGPTTLFGVPIARGPVNAMDVWGQGITVTI
VL: ALQLTQSPSSLSASVGDRITITCRASQGVTSALAWYRQKPGSPPQLLIYDASSLESGVPSRFSGSGSGTEFTLTISTLRPEDFATYYCQQLHFYPHTFGGGTRVDVR
B2: 2F5 IgG1 (antibody, V domains shown)
VH: RITLKESGPPLVKPTQTLTLTCSFSGFSLSDFGVGVGWIRQPPGKALEWLAIIYSDDDKRYSPSLNTRLTITKDTSKNQVVLVMTRVSPVDTATYFCAHRRGPTTLFGVPIARGPVNAMDVWGQGITVTI
VL: ALQLTQSPSSLSASVGDRITITCRASQGVTSALAWYRQKPGSPPQLLIYDASSLESGVPSRFSGSGSGTEFTLTISTLRPEDFATYYCQQLHFYPHTFGGGTRVDVR

Key:
[1] = target: Peptide ELDKWA (HIV-1); assay: ELISA on coated peptide (FIG. 1)
[2] = target: Peptide ELDKWA (HIV-1); assay: ELISA on coated peptide
[3] = target: Peptide ELDKWA (HIV-1); assay: competitive ELISA, competitor 0.027 nM 2F5 IgA2 detected with anti-human IgA

| Binder | antibody concentration of equivalent binding activity [1] [nM] | fold higher efficacy as compared to IgG1 [2] [fold] | concentration needed to compete [3] [nM] |
| --- | --- | --- | --- |
| B1 | 0.05 | > 100 | – |
| B2 | 6.25 | – | 25 |
